One assay concerns the target T1, recombinant CTLA4-Fc (UniProt P16410 37-162).
T1 construct: also called CTLA4-Fc (R&D Systems, 325-CT-200); not shown: Fc part of the bought fusion protein
The assay can be described thus: direct CTLA-4 binding ELISA on CTLA4-Fc coated plates; supernatant diluted 1 in 2 to 1 in 2048. On the technique in general: ELISA stands for enzyme-linked immunosorbent assay.

Another assay has as its target T2, recombinant PDL1-Fc (UniProt Q9NZQ7 19-239).
T2 construct: also called PDL1-Fc (R&D Systems, 156-B7-100); not shown: Fc part of the bought fusion protein
As to the kind of experiment: direct PD-L1 binding ELISA on PDL1-Fc coated plates; 10-fold concentrated supernatant diluted 1 in 2 to 1 in 2048; anti-kappa light chain detection.

In assay [1] the target is T3, non-recombinant PD-L1 ligand expressed in a membrane environment on the surface of lung carcinoma cells (A549) (human, UniProt Q9NZQ7 19-290).
T3 construct: whole, on cells; also called cellular PD-L1; PD-L1 on IFNg stimulated A549 cells
T3 sequence (Q9NZQ7 19-290): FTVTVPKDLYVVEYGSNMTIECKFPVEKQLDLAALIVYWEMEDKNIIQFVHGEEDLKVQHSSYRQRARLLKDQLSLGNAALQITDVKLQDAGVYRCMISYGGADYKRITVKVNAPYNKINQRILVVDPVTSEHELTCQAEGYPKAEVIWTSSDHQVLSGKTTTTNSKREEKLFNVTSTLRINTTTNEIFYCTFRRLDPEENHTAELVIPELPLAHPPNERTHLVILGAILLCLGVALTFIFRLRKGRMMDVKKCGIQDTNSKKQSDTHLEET
The assay can be described thus: flow cytometry on A549 cells with or without IFNgamma stimulation; 50 ul concentrated supernatant; Alexa-fluor 488 anti-human IgG detection. Background: Flow cytometry measures light scatter and fluorescence of single cells or particles in a stream.
Description: A549 cells were either stimulated with 50 ng/ml human IFNγ to promote upregulation of PD-L1 expression on the cell surface or left unstimulated. […] The cells were washed again, resuspended in PBS/1% BSA and analysed with an Attune acoustic focusing cytometer (Life Technologies).

In assay [2] the target is T4, human VEGF-165 (human, UniProt P15692-4 27-191). As to the kind of experiment: direct VEGF binding ELISA and competition ELISA with bevacizumab, HRP anti-His detection; 293F supernatant and lysate.
T4 sequence (P15692 other isoform, or with tags, fused parts or gaps limits assumed): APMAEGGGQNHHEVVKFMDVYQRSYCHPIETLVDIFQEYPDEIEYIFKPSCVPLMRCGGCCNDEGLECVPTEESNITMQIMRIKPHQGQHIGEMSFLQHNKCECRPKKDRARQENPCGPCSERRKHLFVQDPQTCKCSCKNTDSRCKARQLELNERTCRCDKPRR
Description: The cells and media were harvested from the flask and the supernatant and cells were separated by centrifuging for 10 mins, 1000 rpm. The supernatant was collected and the remaining cell pellet resuspended in 1 ml of cell media before carrying out 3 freeze-thaw cycles to lyse the cells. Post-lysis the cell debris and media was separated by a second centrifugation step and the supernatant from the lysate was collected. The supernatants or lysates were diluted 1 in 2 in 3% BSA/PBS 0.05% tween. […] Samples were added to the plates at 100 μl/well and incubated for 1 hr VEGF bound ScFv was detected using HRP-conjugated polyclonal anti-His (Abcam ab1187) followed by TMB detection.
The target of assay [3] is T4, human VEGF-165. The assay can be described thus: VEGF binding ELISA, HRP anti-His detection.
Description: Plates were washed between all subsequent binding steps with PBS 0.05% Tween 20. The plates were blocked for 1 hour at room temperature with 3% BSA in PBS 0.05% Tween 20.
AD293 cells were seeded in 6 well culture plates at a density of 5e5 cells per well. […] Cells were cultured for 72 hrs before the supernatants were collected from the wells and centrifuged for 5 mins, 1200 rpm to remove cell debris. The clarified supernatants were then used for either VEGF binding ELISA or Western blot analysis. […] Samples were added to the plates at 100 μl/well and assay. The detection antibody, HRP conjugated polyclonal anti-His (Abcam ab1187) was then applied for 1 hr at room temperature before HRP detection was performed with HRP substrate solution 3.3.5.5′-teramethylethylenediamine (TMB, Thermo-Fisher). 1M HCl was used for stopping the reaction and the developed colour was measured at 450 nm on a plate reader.

The results in this text go back to patent publication US20180311291A1 (PSIOXUS THERAPEUTICS, published 2018).

T1 sequence (P16410 37-162 limits assumed): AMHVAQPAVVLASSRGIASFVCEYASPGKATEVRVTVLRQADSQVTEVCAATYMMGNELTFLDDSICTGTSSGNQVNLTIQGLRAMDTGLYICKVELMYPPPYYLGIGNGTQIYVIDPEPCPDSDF
T2 sequence (Q9NZQ7 19-239 limits assumed): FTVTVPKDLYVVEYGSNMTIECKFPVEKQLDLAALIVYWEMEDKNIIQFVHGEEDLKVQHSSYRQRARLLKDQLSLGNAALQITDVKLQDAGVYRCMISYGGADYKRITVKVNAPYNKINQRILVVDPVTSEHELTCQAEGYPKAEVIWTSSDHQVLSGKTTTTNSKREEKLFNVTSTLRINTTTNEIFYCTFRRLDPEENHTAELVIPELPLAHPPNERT
Description for recombinant CTLA4-Fc: Culture supernatants were harvested and concentrated at 300 g for 5 minutes to remove cell debris. […] Plates were washed three times with PBS/0.05% Tween 20 then blocked with PBS/3% BSA/0.05% Tween 20.

B1: anti-VEGF full length IgG1 antibody secreted from NG-165 infected cells (antibody, V domains shown)
VH: EVQLVESGGGLVQPGGSLRLSCAASGYTFTNYGMNWVRQAPGKGLEWVGWINTYTGEPTYAADFKRRFTFSLDTSKSTAYLQMNSLRAEDTAVYYCAKYPHYYGSSHWYFDVWGQGTLVTVSS
VL: DIQMTQSPSSLSASVGDRVTITCSASQDISNYLNWYQQKPGKAPKVLIYFTSSLHSGVPSRFSGSGSGTDFTLTISSLQPEDFATYYCQQYSTVPWTFGQGTKVEIKR
Turning to B1, the binding result with recombinant CTLA4-Fc and with recombinant PDL1-Fc was “no binding” throughout.

B2: anti-VEGF full length antibody (human IgG1) secreted from NG-135 infected cells (antibody, V domains shown)
VH: EVQLVESGGGLVQPGGSLRLSCAASGYTFTNYGMNWVRQAPGKGLEWVGWINTYTGEPTYAADFKRRFTFSLDTSKSTAYLQMNSLRAEDTAVYYCAKYPHYYGSSHWYFDVWGQGTLVTVSS
VL: DIQMTQSPSSLSASVGDRVTITCSASQDISNYLNWYQQKPGKAPKVLIYFTSSLHSGVPSRFSGSGSGTDFTLTISSLQPEDFATYYCQQYSTVPWTFGQGTKVEIKR
notes: also called SSA-Bev-PA
For B2, the binding result in assay [1] was “no binding”.

B3: anti-VEGF ScFv with C-terminal His6 tag expressed from NG-78 infected cells (scFv)
scFv: EVQLVESGGGLVQPGGSLRLSCAASGYTFTNYGMNWVRQAPGKGLEWVGWINTYTGEPTYAADFKRRFTFSLDTSKSTAYLQMNSLRAEDTAVYYCAKYPHYYGSSHWYFDVWGQGTLVTVSSGGGGSGGGGSGGGGSDIQMTQSPSSLSASVGDRVTITCSASQDISNYLNWYQQKPGKAPKVLIYFTSSLHSGVPSRFSGSGSGTDFTLTISSLQPEDFATYYCQQYSTVPWTFGQGTKVEIKRHHHHHH
notes: also called NG-78 anti-VEGF ScFv
As for B3, in the assay with human VEGF-165 [2], the binding result was “binds”.

B4: anti-VEGF ScFv with C-terminal His6 tag expressed from NG-76 infected cells (scFv)
scFv: EVQLVESGGGLVQPGGSLRLSCAASGYTFTNYGMNWVRQAPGKGLEWVGWINTYTGEPTYAADFKRRFTFSLDTSKSTAYLQMNSLRAEDTAVYYCAKYPHYYGSSHWYFDVWGQGTLVTVSSGGGGSGGGGSGGGGSDIQMTQSPSSLSASVGDRVTITCSASQDISNYLNWYQQKPGKAPKVLIYFTSSLHSGVPSRFSGSGSGTDFTLTISSLQPEDFATYYCQQYSTVPWTFGQGTKVEIKRHHHHHH
notes: also called NG-76 anti-VEGF ScFv
Take B4: in the assay with human VEGF-165 [3], the binding result is listed as “binds”.
